B1: 22652 (protein)
chain: MALPVTALLLPLALLLHAARPDIQMTQSPSSLSASVGDRVTITCKASDHINNWLAWYQQKPGQAPKLLIYGATTLETGVPSRFSGSGSGTDYTLTISSLQPEDFATYYCQQSWNTPWTFGQGTKLEIKRLEVSPKPTIFLPSIAETKLQKAGTYLCLLEKFFPDVIKIHWQEKKSNTILGSQEGNTMKTNDTYMKFSWLTVPEKSLDKEHRCIVRHENNKNGVDQEIIFPPIKTDVITMDPKDNCSKDANDTLLLQLTNTSAYYMYLLLLLKSVVYFAIITCCLLRRTAFCCNGEKSRAKRSGSGATNFSLLKQAGDVEENPGPTSMDWIWRILFLVGAATGAHSFEQVQLQQPGAELVKPGASVKMSCKASGYAFSSYWINWMKQKPGQGLEWIGQIYPGDGDTNYNGKFKGRATLTADTSSSTAYMQLSSLTSEDSAVYFCARSITTVVGCAMDYWGQGTSVTVSSTRPHTKPSVFVMKNGTNVACLVKEFYPKDIRINLVSSKKITEFDPAIVISPSGKYNAVKLGKYEDSNSVTCSVQHDNKTVHSTDFEVKTDSTDHVKPKETENTKQPSKSCHKPKAIVHTEKVNMMSLTVLGLRMLFAKTVAVNFLLTAKLFFLRAKRSGSGVKQTLNFDLLKLAGDVESNPGPSRGHMTEYKPTVRLATRDDVPRAVRTLAAAFADYPATRHTVDPDRHIERVTELQELFLTRVGLDIGKVWVADDGAAVAVWTTPESVEAGAVFAEIGPRMAELSGSRLAAQQQMEGLLAPHRPKEPAWFLATVGVSPDHQGKGLGSAVVLPGVEAAERAGVPAFLETSAPRNLPFYERLGFTVTADVEVPEGPRTWCMTRKPGA
B2: 22641 (protein)
chain: MALPVTALLLPLALLLHAARPDIQMTQSPSSLSASVGDRVTITCKASDHINNWLAWYQQKPGQAPKLLIYGATTLETGVPSRFSGSGSGTDYTLTISSLQPEDFATYYCQQSWNTPWTFGQGTKLEIKRLEAEISHTQKATLVCLATGFYPDHVELSWWVNGKEVHSGVCTDPQPLKEQPALNDSRYCLSSRLRVSATFWQNPRNHFRCQVQFYGLSENDEWTQDRAKPVTQIVSAEAWGRADCGFTSESYQQGVLSATILYEILLGKATLYAVLVSALVLMAMVKRKDSRGRAKRSGSGATNFSLLKQAGDVEENPGPTSMDWIWRILFLVGAATGAHSFEQVQLQQPGAELVKPGASVKMSCKASGYAFSSYWINWMKQKPGQGLEWIGQIYPGDGDTNYNGKFKGRATLTADTSSSTAYMQLSSLTSEDSAVYFCARSITTVVGCAMDYWGQGTSVTVSSTRDKSVCLFTDFDSQTNVSQSKDSDVYITDKCVLDMRSMDFKSNSAVAWSNKSDFACANAFNNSIIPEDTFFPSPESSCDVKLVEKSFETDTNLNFQNLSVIGFRILLLKVAGFNLLMTLRLWSSRAKRSGSGVKQTLNFDLLKLAGDVESNPGPSRGHMTEYKPTVRLATRDDVPRAVRTLAAAFADYPATRHTVDPDRHIERVTELQELFLTRVGLDIGKVWVADDGAAVAVWTTPESVEAGAVFAEIGPRMAELSGSRLAAQQQMEGLLAPHRPKEPAWFLATVGVSPDHQGKGLGSAVVLPGVEAAERAGVPAFLETSAPRNLPFYERLGFTVTADVEVPEGPRTWCMTRKPGA
B3: 22651 (protein)
chain: MALPVTALLLPLALLLHAARPDIQMTQSPSSLSASVGDRVTITCKASDHINNWLAWYQQKPGQAPKLLIYGATTLETGVPSRFSGSGSGTDYTLTISSLQPEDFATYYCQQSWNTPWTFGQGTKLEIKRLEADVSPKPTIFLPSIAETKLQKAGTYLCLLEKFFPDVIKIHWQEKKSNTILGSQEGNTMKTNDTYMKFSWLTVPEKSLDKEHRCIVRHENNKNGVDQEIIFPPIKTDVITMDPKDNCSKDANDTLLLQLTNTSAYYMYLLLLLKSVVYFAIITCCLLRRTAFCCNGEKSRAKRSGSGATNFSLLKQAGDVEENPGPTSMDWIWRILFLVGAATGAHSFEQVQLQQPGAELVKPGASVKMSCKASGYAFSSYWINWMKQKPGQGLEWIGQIYPGDGDTNYNGKFKGRATLTADTSSSTAYMQLSSLTSEDSAVYFCARSITTVVGCAMDYWGQGTSVTVSSTRPHTKPSVFVMKNGTNVACLVKEFYPKDIRINLVSSKKITEFDPAIVISPSGKYNAVKLGKYEDSNSVTCSVQHDNKTVHSTDFEVKTDSTDHVKPKETENTKQPSKSCHKPKAIVHTEKVNMMSLTVLGLRMLFAKTVAVNFLLTAKLFFLRAKRSGSGVKQTLNFDLLKLAGDVESNPGPSRGHMTEYKPTVRLATRDDVPRAVRTLAAAFADYPATRHTVDPDRHIERVTELQELFLTRVGLDIGKVWVADDGAAVAVWTTPESVEAGAVFAEIGPRMAELSGSRLAAQQQMEGLLAPHRPKEPAWFLATVGVSPDHQGKGLGSAVVLPGVEAAERAGVPAFLETSAPRNLPFYERLGFTVTADVEVPEGPRTWCMTRKPGA
B4: 9970 (protein)
chain: MALPVTALLLPLALLLHAARPDIVMTQSHKFMSTSVGDRVSIICKASQDVGTAVDWYQQKPGQSPKLLIYWASTRHTGVPDRFTGSGSGTDFTLAITNVQSEDLADYFCQQYNSYPLTFGAGTKLEIKRLEDLKNVFPPEVAVFEPSEAEISHTQKATLVCLATGFYPDHVELSWWVNGKEVHSGVCTDPQPLKEQPALNDSRYCLSSRLRVSATFWQNPRNHFRCQVQFYGLSENDEWTQDRAKPVTQIVSAEAWGRADCGFTSESYQQGVLSATILYEILLGKATLYAVLVSALVLMAMVKRKDSRGRAKRSGSGATNFSLLKQAGDVEENPGPTSMDWIWRILFLVGAATGAHSFEEVQLVESGGGLVQPGGSLRLSCAASGYTFTEYTIHWVRQAPGKGLEWVANINPNNGGTTYNQKFEDRFTISRDNSKNTLYLQMNSLRAEDTAVYYCARGWNFDYWGQGTLVTVSSTRIQNPDPAVYQLRDSKSSDKSVCLFTDFDSQTNVSQSKDSDVYITDKCVLDMRSMDFKSNSAVAWSNKSDFACANAFNNSIIPEDTFFPSPESSCDVKLVEKSFETDTNLNFQNLSVIGFRILLLKVAGFNLLMTLRLWSS
modifications: Synthetic Polynucloetide
B5: SEQ ID NO: 22009: two AABD attached in tandem to one of the two TCR constant chains (protein)
chain: MALPVTALLLPLALLLHAARPLEGKPIPNPLLGLDSTGSGEDLKNVFPPEVAVFEPSKAEIAHTQKATLVCLATGFYPDHVELSWWVNGKEVHSGVCTDPQPLKEQPALNDSRYCLSSRLRVSATFWQNPRNHFRCQVQFYGLSENDEWTQDRAKPVTQIVSAEAWGRADCGITSASYHQGVLSATILYEILLGKATLYAVLVSALVLMAMVKRKDSRGRAKRSGSGATNFSLLKQAGDVEENPGPTSTMDWIWRILFLVGAATGAHSQLQLQESGPGLVKPSETLSLTCTVSGGSVSSSSYYWGWIRQPPGKRLELIGSIYYGGSTYFNPSLKSRVTISVDTSKNQFSLKLSSVTAADTAVYYCAGGDTYGPVGQWPSDYRGQGTLVTVSSGGGGSGGGSFEVQLLESGGGLVQPGGSLRLSCAASGFIFSIYAMSWVRQAPGKGLEWVSGISGSGVNTYYADSVKGRFIISRDNSRNTVYLQMNSLRADDTAVYHCANGKGWDGNTWYEDYRGQGTLVTVSSTREQKLISEEDGSGIQNPDPAVYQLRDSKSSDKSVCLFTDFDSQTNVSQSKDSDVYITDKCVLDMRSMDFKSNSAVAWSNKSDFACANAFNNSIIPEDTFFPSSDVPCDVKLVEKSFETDTNLNFQNLSVIGFRILLLKVAGFNLLMTLRLWSSRAKRSGSGVKQTLNFDLLKLAGDVESNPGPSRGHMTEYKPTVRLATRDDVPRAVRTLAAAFADYPATRHTVDPDRHIERVTELQELFLTRVGLDIGKVWVADDGAAVAVWTTPESVEAGAVFAEIGPRMAELSGSRLAAQQQMEGLLAPHRPKEPAWFLATVGVSPDHQGKGLGSAVVLPGVEAAERAGVPAFLETSAPRNLPFYERLGFTVTADVEVPEGPRTWCMTRKPGA

Experiments:
RAJI cells = experiment: JNG (Jurkat NFAT-GFP) cells expressing SAR: GFP induction on co-culture with RAJI; details: CD19 hu-mROO5-1 SIRs with deletion mutants of TCR constant chains; flow cytometry
LNCaP-LucPPe cells = experiment: LNCaP-LucPPE xenograft in NSG mice, with rechallenge; format: in vivo; details: 1 × 10^6 LNCaP-LucPPe s.c., 17 days later 3 × 10^6 T cells i.v., male NSG mice
[1] = system: target antigen-expressing cell line; experiment: Jurkat NFAT-GFP (JNG) assay: induction of NFAT promoter driven GFP expression; format: cell-based; details: SAR-expressing JNG cells co-cultured with cell lines expressing their target antigen(s)
Description: Induction ofNFAT promoter driven GFP expression. […] Cellular supernatant is collected and assayed for the induction of cytokines (e.g., IL2).
Cellular supernatant is collected and assayed for the induction of cytokines (e.g., IL2).
JNG (Jurkat cells expressing EGFP under an NFAT promoter) were infected with lentiviral vectors encoding different single chain and multi-chain SARs by spinfection in the presence of 8 µg/ml of Polybrene® (Sigma, Catalog no. H9268). The Jurkat-NFAT-GFP cells are engineered in such a way that the IL-2 promoter, which carries NFAT binding sites, is cloned upstream of the GFP gene. These cells have been used to study signaling via TCR and CAR. The different SARs were stably expressed in Jurkat NFAT-GFP cells by lentiviral mediated gene transfer, followed by selection with puromycin or blasticidin. No drug selection was used in case the construct lacked an antibiotic resistance gene. The SAR-expressing Jurkat-NFAT-GFP cells were cocultured with the target cells at E:T ratio of approximately 1:2 for approximately 4 hours to 18 hours. When the interaction between SIRs and their target antigen results in activation of the NFAT pathway, GFP expression is induced. […] GFP expression was monitored by FACS analysis. The Jurkat-NFAT-GFP (parental) cells were used as control. The structure of different constructs can be determined based on their names. […] The sequence of the other constructs in the table can be similarly determined from their names and by referring to the different Tables of this disclosure that provide the names and SEQ ID NO of the different modules. Alternatively, the composition and modular architecture of the different SAR constructs can be determined from their sequences by bioinformatics tools, including using nucleic acid and amino acids homology searches. A SAR is considered positive in the assay in case the SAR expressing Jurkat-NFAT-GFP cells show greater % GFP positive cells when cultured with the target cell line as compared to parental Jurkat-NFAT-GFP cells. […] In general, the number +/-, +, 2+, 3+, 4+, 5+ refer to approximately 5%, 10%, 20%, 30%, 40% and 50% GFP positive cells. The % of GFP induction in the above assay is dependent not only the relative strength of the SAR but also, among other factors, on the relative level of expression of the SAR in the JNG cells and the relative level of expression of the target antigen in the target cell line. To control for the difference in gene transduction efficiency of the different SAR constructs, the experiment was conducted with JNG cells transduced with SAR constructs co-expressing a drug resistance gene (e.g., puromycin or PAC) followed by drug selection to generate a stable population of SAR-expressing cells. It is to be noted that the drug resistance gene (e.g., PAC) in the SAR constructs is optional and in vivo studies were conducted with SAR constructs lacking the PAC gene.

Row | Molecule | Jurkat-NFAT ASSA Y: Raji (RAJI cells) | other results
1 | B1 | significant residual activity | –
2 | B2 | significant GFP induction | –
3 | B3 | significant residual activity | –
4 | B4 | – | tumor control (bioluminescence imaging, caliper tumor volume), LNCaP-LucPPE xenograft (LNCaP-LucPPe cells): statistically significant and effective tumor control
5 | B5 | – | GFP induction / activity in JNG assay [1]: only weak and inconsistent activity

Reference: patent publication US20230212319A1, “NOVEL ANTIGEN BINDING DOMAINS AND SYNTHETIC ANTIGEN RECEPTORS INCORPORATING THE SAME” (University of Southern California, priority 2020, published 2023)
